Laboratory results from patent US10058586B2, “Use of human small leucine zipper protein in adipocyte differentiation procedure” (Korea University Research and Business Foundation, priority 2013, dated 2018).

Experiments:
[1] = test system: FABP4 and other PPARγ2 target genes; assay: RT-PCR and real-time PCR of PPARγ2 target genes in differentiated preadipocytes of sLZIP TG mice; assay type: cell-based, mouse; conditions: sLZIP TG mice preadipocytes differentiated into adipocytes
Method: According to instructions of the manufacturer, a TRIzol reagent (Invitrogen, Carlsbad, Calif.) was added to directly lyse cells in a culture dish. Accupower RT PreMix (BioNeer, Daejeon, Korea) was used to synthesize cDNA from 2 μg of total RNA. A reaction was performed for 60 minutes at 42° C. and for 5 minutes at 94° C. PCR amplification was performed using oligomers listed in Table 2 and a Hipi PCR Mix Kit (ELPIS). As an internal control group, GAPDH was amplified. A PCR product was subjected to electrophoresis in 1-2% (w/v) agarose gel containing 0.5 μg/mL ethidium bromide. A size of the PCR product was measured by comparing it with 1 kb DNA ladder marker (Invitrogen). An intensity of bands amplified according to RT-PCR was analyzed using MultiImage™ Light Cabinet (version 5.5, Alpha Innotech Corp., San Leandro, Calif.).
Real-time PCR was performed in LightCycler 480 using a SYBR Green Master Mix (Roche, Mannheim, Germany). β-actin was used as an internal control group. A target gene expression level rate with respect to β-actin was calculated using CT method. A Ct value is defined as a PCR cycle number at which a fluorescence signal reaches a fixed target threshold. Experiments were technically repeated three times for each experiment.
Adipocyte differentiation is a well-regulated procedure. […] A promoter activity was measured according to luciferase analysis (FIG. 8B). […]

HDAC3 = biological target: T1, HDAC3 (Mus musculus, UniProt O88895); assay: Fluorescence microscopy, subcellular localization of sLZIP and HDAC3 in C3H10T1/2 cells; assay type: cell-based; conditions: GFP-sLZIP, anti-HDAC3
T1 construct: endogenous in cells; host or cells: C3H10T1/2 cells expressing GFP-sLZIP
T1 sequence (O88895 1-428): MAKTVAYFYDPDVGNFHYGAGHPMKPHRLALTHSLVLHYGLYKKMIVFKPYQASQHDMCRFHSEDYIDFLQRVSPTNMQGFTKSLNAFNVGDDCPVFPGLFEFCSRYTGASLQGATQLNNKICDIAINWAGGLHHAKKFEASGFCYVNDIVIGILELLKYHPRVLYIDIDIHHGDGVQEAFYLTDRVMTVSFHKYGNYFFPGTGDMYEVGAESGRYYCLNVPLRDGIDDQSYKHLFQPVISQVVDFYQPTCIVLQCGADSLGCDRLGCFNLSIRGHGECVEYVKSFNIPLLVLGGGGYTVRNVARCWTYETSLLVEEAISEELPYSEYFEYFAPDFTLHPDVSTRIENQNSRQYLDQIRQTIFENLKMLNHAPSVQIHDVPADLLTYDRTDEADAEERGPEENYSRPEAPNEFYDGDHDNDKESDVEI
Method: C3H10T1/2 cells were transiently ci-transfected with Flag-sLZIP, GFP-PPARγ2 or GFP-sLZIP, and HDAC3 was grown on cover slip. After 24 hours, the cells were fixed with 4% paraformaldehyde for 10 minutes and permeabilized 0.2% Triton-X 100 for 5 minutes. The cells were incubated with 1% BSA for one hour, and then incubated with anti-Flag and anti-HDAC3 antibodies overnight at 4° C. The cells were washed with PBS, and then were incubated with Texas Red-labeled antibodies for 2 hours. A cover slide was washed with PBS, and mounted on and examined using a LSM 510 META confocal microscopy (Carl Zeiss, Jena, Germany).
For this purpose, 293T cells were transiently transfected with PPARγ2 (0.5 μg), (3-galactosidase (0.1 μg), FABP4-Luc reporter genes (0.2 μg) and sLZIP (0.1 μg). After the transfection, the cells were stimulated with or without 10 nM of RZD and 10 nM of TSA (FIG. 4A). A promoter activity was measured according to luciferase analysis. In the 293T cells, FABP4-Luc reporter genes, sLZIP, PPAR, β-galactosidase, and 100 nM of si-RNAs and HDAC1, 2, 3 and 8 for a control group were expressed. After the transfection, the cells were stimulated with or without 10 nM of RZD, and a promoter activity was measured (FIG. 4B). […] A protein complex was analyzed in SDS-PAGE, and anti-GST and anti-Flag antibodies were used for immunoblotting (FIG. 4E). *, P<0.05; **, P<0.01

B1: sLZIP: human small leucine-zipper protein, isoform of LZIP, 354 amino acids, no transmembrane domain; GenBank FJ263669, SEQ ID NO: 1 (protein, listed as Homo sapiens)
chain: MELELDAGDQDLLAFLLEESGDLGTAPDEAVRAPLDWALPLSEVPSDWEVDDLLCSLLSPPASLNILSSSNPCLVHHDHTYSLPRETVSMDLESESCRKEGTQMTPQHMEELAEQEIARLVLTDEEKSLLEKEGLILPETLPLTKTEEQILKRVRRKIRNKRSAQESRRKKKVYVGGLESRVLKYTAQNMELQNKVQLLEEQNLSLLDQLRKLQAMVIEISNKTSSSSMYSSDTRGSLPAEHGVLSRQLRALPSEDPYQLELPALQSEVPKDSTHQWLDGSDCVLQAPGNTSCLLHYMPQAPSAEPPLEWPFPDLFSEPLCRGPILPLQANLTRKGGWLPTGSPSVILQDRYSG
- expression of FABP4 and other PPARγ2 target genes (C/EBPα, LPL) mRNA [1]: down-regulated
- subcellular localization of sLZIP and HDAC3 (HDAC3): localized in the nucleus together with HDAC3
